Test results taken from publication PMC10831248, “Characterization of membrane protein interactions by peptidisc-mediated mass photometry” (iScience, 2024).

How the values were obtained:
[1] = biological target: T1, vitamin B12 ABC transporter BtuCD, reconstituted in peptidiscs (E. coli, UniProt P06609 1-326; P06611 1-249); assay: 1 mM ATP
T1 chain 1: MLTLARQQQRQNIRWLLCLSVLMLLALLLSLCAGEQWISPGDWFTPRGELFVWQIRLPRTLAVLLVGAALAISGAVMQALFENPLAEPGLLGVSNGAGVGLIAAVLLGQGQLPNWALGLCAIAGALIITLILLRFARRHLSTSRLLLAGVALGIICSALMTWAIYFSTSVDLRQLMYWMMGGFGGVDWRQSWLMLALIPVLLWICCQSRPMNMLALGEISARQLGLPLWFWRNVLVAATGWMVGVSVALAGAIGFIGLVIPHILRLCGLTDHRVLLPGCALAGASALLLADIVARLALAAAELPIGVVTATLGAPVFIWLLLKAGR
T1 chain 2: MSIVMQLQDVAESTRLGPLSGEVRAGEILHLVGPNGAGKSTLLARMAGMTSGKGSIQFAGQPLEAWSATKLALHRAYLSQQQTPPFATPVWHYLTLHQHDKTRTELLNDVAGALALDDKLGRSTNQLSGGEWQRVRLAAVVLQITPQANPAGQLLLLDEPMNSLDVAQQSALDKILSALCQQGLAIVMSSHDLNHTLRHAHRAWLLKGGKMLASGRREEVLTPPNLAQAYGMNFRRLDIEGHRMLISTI

[2] = biological target: T1, vitamin B12 ABC transporter BtuCD, …; assay: without ATP
[3] = biological target: the molecule itself; assay: mass photometry; SEC fractions of His-tagged membrane proteins purified on Ni-NTA and reconstituted into peptidiscs, diluted 100-fold in PBS to ~5-20 nM; main species: subunits together in the native oligomer or complex in one disc
mass photometry = biological target: the molecule itself; assay: mass photometry

B1: periplasmic B12 binding protein BtuF (natural protein)
chain: APRVITLSPANTELAFAAGITPVGVSSYSDYPPQAQKIEQVSTWQGMNLERIVALKPDLVIAWRGGNAERQVDQLASLGIKVMWVDATSIEQIANALRQLAPWSPQPDKAEQAAQSLLDQYAQLKAQYADKPKKRVFLQFGINPPFTSGKESIQNQVLEVCGGENIFKDSRVPWPQVSREQVLARSPQAIVITGGPDQIPKIKQYWGEQLKIPVIPLTSDWFERASPRIILAAQQLCNALSQVD
[1]
  Kd: 25 nM
[2]
  Kd: 48 nM

B2: trimeric drug efflux pump AcrB (natural protein, E. coli, UniProt P31224 1-1049, looked up)
chain: MPNFFIDRPIFAWVIAIIIMLAGGLAILKLPVAQYPTIAPPAVTISASYPGADAKTVQDTVTQVIEQNMNGIDNLMYMSSNSDSTGTVQITLTFESGTDADIAQVQVQNKLQLAMPLLPQEVQQQGVSVEKSSSSFLMVVGVINTDGTMTQEDISDYVAANMKDAISRTSGVGDVQLFGSQYAMRIWMNPNELNKFQLTPVDVITAIKAQNAQVAAGQLGGTPPVKGQQLNASIIAQTRLTSTEEFGKILLKVNQDGSRVLLRDVAKIELGGENYDIIAEFNGQPASGLGIKLATGANALDTAAAIRAELAKMEPFFPSGLKIVYPYDTTPFVKISIHEVVKTLVEAIILVFLVMYLFLQNFRATLIPTIAVPVVLLGTFAVLAAFGFSINTLTMFGMVLAIGLLVDDAIVVVENVERVMAEEGLPPKEATRKSMGQIQGALVGIAMVLSAVFVPMAFFGGSTGAIYRQFSITIVSAMALSVLVALILTPALCATMLKPIAKGDHGEGKKGFFGWFNRMFEKSTHHYTDSVGGILRSTGRYLVLYLIIVVGMAYLFVRLPSSFLPDEDQGVFMTMVQLPAGATQERTQKVLNEVTHYYLTKEKNNVESVFAVNGFGFAGRGQNTGIAFVSLKDWADRPGEENKVEAITMRATRAFSQIKDAMVFAFNLPAIVELGTATGFDFELIDQAGLGHEKLTQARNQLLAEAAKHPDMLTSVRPNGLEDTPQFKIDIDQEKAQALGVSINDINTTLGAAWGGSYVNDFIDRGRVKKVYVMSEAKYRMLPDDIGDWYVRAADGQMVPFSAFSSSRWEYGSPRLERYNGLPSMEILGQAAPGKSTGEAMELMEQLASKLPTGVGYDWTGMSYQERLSGNQAPSLYAISLIVVFLCLAALYESWSIPFSVMLVVPLGVIGALLAATFRGLTNDVYFQVGLLTTIGLSAKNAILIVEFAKDLMDKEGKGLIEATLDAVRMRLRPILMTSLAFILGVMPLVISTGAGSGAQNAVGTGVMGGMVTATVLAIFFVPVFFVVVRRRFSRKNEDIEHSHTVDHH
notes: AcrB, multidrug efflux pump subunit, E. coli; It is carried in a peptidisc; source: E. coli C43(DE3), purified (DDM extraction, Ni-NTA, reconstituted into peptidiscs, SEC); not shown: His6, C-terminal, kept
[3]
  binding result: binds

B3: mechanosensitive channel of large conductance (MscL) from Mycobacterium tuberculosis (natural protein)
chain: MLKGFKEFLARGNIVDLAVAVVIGTAFTALVTKFTDSIITPLINRIGVNAQSDVGILRIGIGGGQTIDLNVLLSAAINFFLIAFAVYFLVVLPYNTLRKKGEVEQPGDTQVVLLTEIRDLLAQTNGDSPGRHGGRGTPSPTDGPRASTESQ
notes: MscL, large-conductance mechanosensitive channel, Mycobacterium tuberculosis; also called M. Tb MscL; not shown: His6, C-terminal, kept
Mass photometry
  binding result: binds
